Experimental findings from publication PMC9250652, “Functional analysis of the dihydroflavonol 4-reductase family of Camellia sinensis: exploiting key amino acids to reconstruct reduction activity” (Horticulture Research, 2022) are described below.

For orientation: Km means the substrate concentration at which the rate is half of its maximum.

Common to all, as to assay: purified protein
Common to all, as to format: biochemical, Camellia sinensis
What all share (details): apparent Km, NADPH, 0.1 M potassium phosphate pH 7.0, 30 °C

Substrate in data set [1]: O=C1c2c(O)cc(O)cc2O[C@H](c2cc(O)c(O)c(O)c2)[C@H]1O
Substrate in data set [2]: O=C1c2c(O)cc(O)cc2O[C@H](c2ccc(O)c(O)c2)[C@H]1O
Substrate in data set [3]: O=C1c2c(O)cc(O)cc2O[C@H](c2ccc(O)cc2)[C@H]1O

B1: CsDFRb1 (Camellia sinensis; C126T) (protein)
chain: MEVVEVKNGYGGGGGTTVCVTGASGFIGSWLVMRLLQRGYYVRATVRDPDNTDKVKHLLDLPNATTHLSLWKADLDEDGSFDDAIQGCHGVFHVATPMNFVFVMDPENEYIKPTVDGVLNVMRSCTKAKTVKRIIYTSTMATIEYQQKPPSQYDESIWTDVDFCRARKMFAWMYLVAKTEAEKAAWKFAEDNGPDLITVHPCSVIGPFITPYKPPCTSMALALITKNKAFYPMLTQGHAVHVDDVCNAHIYLFEHPQAKGRYICSSHSFTILDLASSLSKKYPEYNIQTKFEDIDESLKPIPCPSKKLLDLGFKFKYNSDECDAGDLCAEAIEACKEKGQMPSL
notes: only point mutants active
Consider B1, for which the Km in the data set “purified protein [1]” came out at 47.75 µM; in the data set “purified protein [2]”, 102.57 µM; in the data set “purified protein [3]” it was 131.09 µM.

B2: CsDFRb1 (Camellia sinensis; N120S) (protein)
chain: MEVVEVKNGYGGGGGTTVCVTGASGFIGSWLVMRLLQRGYYVRATVRDPDNTDKVKHLLDLPNATTHLSLWKADLDEDGSFDDAIQGCHGVFHVATPMNFVFVMDPENEYIKPTVDGVLSVMRSCCKAKTVKRIIYTSTMATIEYQQKPPSQYDESIWTDVDFCRARKMFAWMYLVAKTEAEKAAWKFAEDNGPDLITVHPCSVIGPFITPYKPPCTSMALALITKNKAFYPMLTQGHAVHVDDVCNAHIYLFEHPQAKGRYICSSHSFTILDLASSLSKKYPEYNIQTKFEDIDESLKPIPCPSKKLLDLGFKFKYNSDECDAGDLCAEAIEACKEKGQMPSL
notes: only point mutants active
On to B2, for which the Km in the data set “purified protein [1]” was 96.58 µM; in the data set “purified protein [2]”, 108.66 µM; in “purified protein [3]”, 148.96 µM.

B3: CsDFRa (Camellia sinensis) (protein)
chain: MKDSVASATASAPGTVCVTGAAGFIGSWLVMRLLERGYIVRATVRDPANLKKVKHLLDLPKADTNLTLWKADLNEEGSFDEAIEGCSGVFHVATPMDFESKDPENEVIKPTINGVLSIIRSCTKAKTVKRLVFTSSAGTVNVQEHQQPVFDENNWSDLDFINKKKMTGWMYFVSKTLAEKAAWEAAKENNIDFISIIPTLVVGPFIMPTFPPSLITALSPITRNEGHYSIIKQGQFVHLDDLCESHIFLYERPQAEGRYICSSHDATIHDLAKLMREKWPEYNVPTEFKGIDKDLPVVSFSSKKLIGMGFEFKYSLEDMFRGAIDTCREKGLLPHSFAENPVNGNKV
Regarding B3, the results for the Km in “purified protein [1]”, in the data set “purified protein [2]” and in “purified protein [3]” were 58.44 µM, 41.80 µM and 145.10 µM, respectively.

B4: CsDFRc (Camellia sinensis) (protein)
chain: MEDTKSKLQEGSAVESLTTTTYCVTGATGYIGSWLVKSLLQRGYRVHATVRNQAKTLHLLPLWGGGDRLRVFRADLHKEGSFNEAVQGCSGVFHVAASMEFEVPAKEDIDSYVRANVIEPAINGTLNLLKSCLKTPSVRRVVFTSSISTMTAKDSAGKWRSVVDESCQNPIDRVWKTKTGAWVYVLSKLLTEEAAFQFANENSIDLVSVITTTVAGPFLTSTVPTSVQVLLSPITGDSKFSRILSAVNSRMGSIALVHIEDICSAHIFLMEHDGAEGRYICSAHSSVISQLVDHLAKEHPFSNMQRLVEEEHGSVPSEISSKKLRDLGFNFKFGLEDIIHHTVSSCVDCGFLCPTVN
In the case of B4, the Km in “purified protein [1]” was 105.56 µM; in the data set “purified protein [2]” it was 81.80 µM; in the data set “purified protein [3]”, 42.31 µM.
